Results from publication PMC12133307, “Structure, kinetics, and mechanism of Pseudomonas putida sulfoquinovose dehydrogenase, the first enzyme in the sulfoglycolytic Entner-Doudoroff pathway” (Biochemical Journal, 2025).

Biological target: the molecule itself
Test: SEC-MALS; SEC-MALLS, Superdex S200 10/300 GL, 100 mM Tris pH 7.5, 300 mM NaCl, 100 µl at ~2 mg/ml, 0.5 ml/min, 20 °C

B1: Pseudomonas putida SQ dehydrogenase (PpSQDH) (enzyme, Pseudomonas putida SQ1)
chain: MNRHTDTHYPSLADKVVLISGGASGIGRAFVEAFVAQGSRVAFLDLDAEAGQGLAHALGANSLFLPCDVRDIERLKACVAEVERTWGAVDVLINNAARDDRHALADVSVEYWDERMQTNLRHAFFAAQAVAPGMARRGSGAIINMGSISWMRGRPGMVCYTTAKAALNGMTRTLARELGGQGIRINSLVPGAIRTERQDAMWAADPAGLEAASQAFIDQQMLKFRLDASDCARLALFLASDDSRGCTGQNFVVDAGLSIQ
notes: SQ dehydrogenase PpSQ1_00090 of Pseudomonas putida SQ1; Gln260 is the C-terminal residue; no step that removes the tag is described; A second preparation for kinetics was made in 'NEB T7 Express' E. coli (HisTrap, Superdex 75); also called sulfoquinovose dehydrogenase; PpSQ1_00090; source: E. coli BL21(DE3), purified (Ni-NTA IMAC, SEC)
stoichiometry N: 4
